In this data set the test system is CC(=O)N[C@H]1[C@H](Oc2ccc([N+](=O)[O-])cc2)O[C@H](CO)[C@@H](O)[C@@H]1O. Kind of data set: p-nitrophenol release, A405, non-linear regression. The class given is biochemical, Bifidobacterium longum subsp. infantis. The settings on record: pH 5.0, 37 °C, 50 mM Na2HPO4, apparent kinetics.

The term Km denotes the substrate concentration at which the rate is half of its maximum. With “Blon_2355 (Bifidobacterium longum subsp. infantis ATCC 15697 = JCM 1222 = DSM 20088)”, the Km came out at 480 ± 20 µM. In the case of “Blon_0459 (Bifidobacterium longum subsp. infantis ATCC 15697 = JCM 1222 = DSM 20088)”, the Km was determined as 330 ± 40 µM. Broadly, the kcat is the number of substrate molecules converted per active site and unit of time at saturation. A word on the kcat/Km: it is the second-order rate constant that governs catalysis at low substrate concentration. For “Blon_0732 (Bifidobacterium longum subsp. infantis ATCC 15697 = JCM 1222 = DSM 20088)”, the Km is 1640 ± 850 µM, the kcat stood at 104 ± 46.2 s⁻¹ and the kcat/Km came to 65000 ± 543 M⁻¹ s⁻¹.

The record behind these values is PMC7568402.
